The target in assay [1] is T1, mutant Huntingtin exon 1 (mHttQ51) (Homo sapiens, UniProt P42858, INS38QQQQQQQQQQQQQQQQQQQQQQQQQQQQQQQ).
T1 construct: mutant Huntingtin exon 1 containing a pathogenic stretch of 51 glutamines (mHttQ51); GST (N, cleaved yes); made in house; host or cells: E. coli Rosetta 2(DE3) pLysS
The experiment in a line: In vitro filter trap aggregation assay of mutant Huntingtin exon 1. In kind it is biochemical. Particulars: 5× or 10× molar excess of peptides. Here is the method:
Mutant Huntingtin and PolyQ51 aggregation reactions were performed at concentration 3 μM of mHttQ51, 0.044 Units/μl acTEV protease (Invitrogen, Carlsbad, CA, USA), and respective concentrations of Ovalbumin (Sigma) or purified NAC chaperone variants. Aggregation was conducted in TEV reaction buffer (Invitrogen) and incubated at 30° C. AtxQ78 was buffer exchanged into TEV reaction buffer using 7K MWCO Zeba Spin Desalting Columns (Thermo Fisher) to initiate aggregation. AtxQ78 aggregation reactions were performed at 30 μM of Ataxin-3 in reaction buffer (20 mM sodium phosphate pH 7.5, 25 mM NaCl, 6 mM MgCl2, 2 mM DTT, 5% (v/v) glycerol) and incubated at 37° C. Samples at varied time-points were then taken and combined in a 1:1 ratio with a 4% (w/v) SDS, 100 mM DTT solution, boiled for 5 min at 95° C., and stored at −20° C. Samples were then filtered through a 0.22 μm cellulose acetate membrane (Whatman) and washed with 0.1% (w/v) SDS. Membrane was probed using an S-tag antibody (Abcam) for mHttQ51 and PolyQ51, and with a His-tag antibody (Abcam) for AtxQ78.

Assay [2] relates to yeast model systems and tissue culture cells. The assay is described as follows: Neurotoxicity associated with Huntington's Disease in yeast model systems and tissue culture cells. In kind it is cell-based. The note with it: elevated levels of the subunit.

T1 sequence (P42858 with tags, fused parts or gaps with the stated changes limits assumed): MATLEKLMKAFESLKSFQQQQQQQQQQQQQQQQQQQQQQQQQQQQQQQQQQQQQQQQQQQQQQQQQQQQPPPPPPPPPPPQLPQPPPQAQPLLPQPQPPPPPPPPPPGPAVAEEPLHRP

With “C. elegans N-βNAC peptide: synthetic peptide corresponding to the N-terminal region of C. elegans βNAC (SEQ ID NO:1) (MDSKAIAERIKKLQAQQEHVRIGGKGTPRRKKKVIHKTAA)”, the mHttQ51 aggregation entry in assay [1] is recorded as “sufficient to suppress aggregation of mHttQ51”. With “full length CCT1 subunit: single subunit of the TRiC/CCT chaperonin complex”, the “neurotoxicity associated with Huntington's Disease” value in assay [2] is “suppress neurotoxicity”.

The values above are taken from patent US12338268B2, “Compositions and methods for treating protein aggregation-associated diseases” (The Board of Trustees of the Leland Stanford Junior …, priority 2019, dated 2025).
